From patent US12467929
One block for each substance: values may come before it.

What was measured:
[1] = molecular target: recombinant UBE3A protein (Homo sapiens (Human)) (UniProt Q05086); assay: Simoa; capture GTX; SBG 75 pm; UBE3A 20.0 ng/ml
[2] = molecular target: recombinant UBE3A protein (Homo sapiens (Human)) (UniProt Q05086); assay: Simoa; capture GTX; SBG 150 pm; UBE3A 20.0 ng/ml
[3] = molecular target: recombinant UBE3A protein (Homo sapiens (Human)) (UniProt Q05086); assay: Simoa; capture GTX; SBG 150 pm; UBE3A 0.160 ng/ml
[4] = molecular target: recombinant UBE3A protein (Homo sapiens (Human)) (UniProt Q05086); assay: Simoa; capture GTX; SBG 100 pm; UBE3A 0.0320 ng/ml
[5] = molecular target: recombinant UBE3A protein (Homo sapiens (Human)) (UniProt Q05086); assay: Simoa; capture GTX; 3E5 0.2 ug/ml; UBE3A 20.0 ng/ml
[6] = molecular target: recombinant UBE3A protein (Homo sapiens (Human)) (UniProt Q05086); assay: Simoa; capture GTX; 3E5 0.4 ug/ml; UBE3A 0.00128 ng/ml
[7] = molecular target: recombinant UBE3A protein (Homo sapiens (Human)) (UniProt Q05086); assay: Simoa; capture GTX; 3E5 0.8 ug/ml; UBE3A 0.00640 ng/ml
[8] = molecular target: recombinant UBE3A protein (Homo sapiens (Human)) (UniProt Q05086); assay: 3-step Simoa, 120 min bead step; capture GTX; UBE3A 100 ng/ml
[9] = molecular target: recombinant UBE3A protein (Homo sapiens (Human)) (UniProt Q05086); assay: Simoa head-to-head, Table 10; capture MS 2F6; UBE3A 0.80 ng/ml
[10] = molecular target: recombinant UBE3A protein (Homo sapiens (Human)) (UniProt Q05086); assay: 3-step Simoa, 120 min bead step; capture GTX; UBE3A 4.00 ng/ml
[11] = molecular target: recombinant UBE3A protein (Homo sapiens (Human)) (UniProt Q05086); assay: 3-step Simoa, 120 min bead step; capture GTX; UBE3A 0.160 ng/ml
[12] = molecular target: recombinant UBE3A protein (Homo sapiens (Human)) (UniProt Q05086); assay: Simoa; capture GTX + helper beads; 3E5 0.2 ug/ml; UBE3A 4.00 ng/ml
[13] = molecular target: recombinant UBE3A protein (Homo sapiens (Human)) (UniProt Q05086); assay: Simoa; capture GTX + helper beads; 3E5 0.2 ug/ml; UBE3A 0.160 ng/ml
[14] = molecular target: recombinant UBE3A protein (Homo sapiens (Human)) (UniProt Q05086); assay: Simoa; capture GTX + helper beads; 3E5 0.2 ug/ml; UBE3A 0.800 ng/ml
[15] = molecular target: recombinant UBE3A protein (Homo sapiens (Human)) (UniProt Q05086); assay: Simoa; capture GTX + helper beads; 3E5 0.4 ug/ml; UBE3A 0.00640 ng/ml
[16] = molecular target: recombinant UBE3A protein (Homo sapiens (Human)) (UniProt Q05086); assay: Simoa; capture GTX, no helper beads; 3E5 0.2 ug/ml; UBE3A 0.0320 ng/ml
[17] = molecular target: recombinant UBE3A protein (Homo sapiens (Human)) (UniProt Q05086); assay: Simoa; capture GTX, no helper beads; 3E5 0.4 ug/ml; UBE3A 0.0320 ng/ml
[18] = molecular target: recombinant UBE3A protein (Homo sapiens (Human)) (UniProt Q05086); assay: Simoa; capture GTX, no helper beads; 3E5 0.1 ug/ml; UBE3A 0.00128 ng/ml
[19] = molecular target: recombinant UBE3A protein (Homo sapiens (Human)) (UniProt Q05086); assay: 2-step Simoa; capture GTX; UBE3A 31.3 ng/ml
[20] = molecular target: recombinant UBE3A protein (Homo sapiens (Human)) (UniProt Q05086); assay: 3-step Simoa; capture GTX; UBE3A 0.488 ng/ml

Chain of UniProt Q05086 (Q05086 whole entry): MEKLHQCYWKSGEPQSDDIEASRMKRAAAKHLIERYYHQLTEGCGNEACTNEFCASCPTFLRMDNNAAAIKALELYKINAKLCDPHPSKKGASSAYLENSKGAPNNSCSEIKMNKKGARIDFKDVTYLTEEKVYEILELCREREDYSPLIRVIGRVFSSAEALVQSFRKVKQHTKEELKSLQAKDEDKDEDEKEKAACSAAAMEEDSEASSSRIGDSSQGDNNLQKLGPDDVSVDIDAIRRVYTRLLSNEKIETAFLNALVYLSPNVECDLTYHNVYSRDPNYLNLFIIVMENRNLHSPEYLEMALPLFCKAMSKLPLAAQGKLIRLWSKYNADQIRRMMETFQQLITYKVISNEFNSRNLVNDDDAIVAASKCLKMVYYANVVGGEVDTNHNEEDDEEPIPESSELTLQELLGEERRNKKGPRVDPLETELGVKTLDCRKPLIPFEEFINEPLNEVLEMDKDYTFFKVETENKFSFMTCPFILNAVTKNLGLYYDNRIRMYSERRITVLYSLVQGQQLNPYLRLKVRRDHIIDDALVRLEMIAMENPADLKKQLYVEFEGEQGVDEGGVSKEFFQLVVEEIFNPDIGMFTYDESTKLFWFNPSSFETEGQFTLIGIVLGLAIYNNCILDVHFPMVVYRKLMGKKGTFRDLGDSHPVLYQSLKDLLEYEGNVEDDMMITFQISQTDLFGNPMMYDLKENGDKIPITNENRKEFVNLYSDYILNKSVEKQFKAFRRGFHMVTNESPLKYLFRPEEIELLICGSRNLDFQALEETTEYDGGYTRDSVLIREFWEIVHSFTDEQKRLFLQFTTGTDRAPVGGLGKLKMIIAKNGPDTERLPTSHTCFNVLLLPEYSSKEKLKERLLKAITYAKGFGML

AEB1 [1]: 2.44
AEB2 [1]: 2.81
AEB3 [1]: 2.75
Average AEB [1]: 2.67
Signal to Background [1]: 611
AEB1 [2]: 5.87
AEB2 [2]: 5.57
AEB3 [2]: 5.72
Average AEB [2]: 5.72
Signal to Background [2]: 431
AEB1 [3]: 0.0773
AEB2 [3]: 0.0769
Average AEB [3]: 0.0771
Signal to Background [3]: 5.82
AEB1 [4]: 0.0199
AEB2 [4]: 0.0201
AEB3 [4]: 0.0192
Average AEB [4]: 0.0197
Signal to Background [4]: 2.35
AEB1 [5]: 6.38
AEB2 [5]: 6.95
AEB3 [5]: 6.77
Average AEB [5]: 6.7
Signal to Background [5]: 171
AEB1 [6]: 0.0769
AEB2 [6]: 0.072
AEB3 [6]: 0.0724
Average AEB [6]: 0.0738
Signal to Background [6]: 1.18
AEB1 [7]: 0.114
AEB2 [7]: 0.127
AEB3 [7]: 0.117
Average AEB [7]: 0.12
Signal to Background [7]: 0.976
AEB1 [8]: 7.86
AEB2 [8]: 8.12
Ave AEB [8]: 7.99
Signal to Background [8]: 4690
AEB1 [9]: 0.0353
AEB2 [9]: 0.037
Ave AEB [9]: 0.0361
Signal to Background [9]: 2.67
AEB1 [10]: 0.533
AEB2 [10]: 0.55
Ave AEB [10]: 0.542
Signal to Background [10]: 318
AEB1 [11]: 0.0398
AEB2 [11]: 0.0389
Ave AEB [11]: 0.0393
Signal to Background [11]: 23.1
AEB1 [12]: 0.892
AEB2 [12]: 0.846
Average AEB [12]: 0.869
Signal to Background [12]: 89.8
AEB1 [13]: 0.0751
AEB2 [13]: 0.0703
Average AEB [13]: 0.0727
Signal to Background [13]: 7.51
AEB1 [14]: 0.252
AEB2 [14]: 0.261
Average AEB [14]: 0.257
Signal to Background [14]: 26.5
AEB1 [15]: 0.0326
AEB2 [15]: 0.0263
Average AEB [15]: 0.0294
Signal to Background [15]: 1.51
AEB1 [16]: 0.0229
AEB2 [16]: 0.0244
Average AEB [16]: 0.0236
Signal to Background [16]: 2.44
AEB1 [17]: 0.0366
AEB2 [17]: 0.037
Average AEB [17]: 0.0368
Signal to Background [17]: 1.88
AEB1 [18]: 0.005
AEB2 [18]: 0.0075
Average AEB [18]: 0.0062
Signal to Background [18]: 1.09
Substance: anti-UBE3A antibody 3E5 (SAB1404508-100 ug, Millipore-Sigma)

AEB1 [19]: 0.141
AEB2 [19]: 0.126
Ave AEB [19]: 0.134
Signal to Background [19]: 40.8
AEB1 [20]: 0.0023
AEB2 [20]: 0.0026
Ave AEB [20]: 0.0025
Signal to Background [20]: 0.759
Substance: NB500-240 (Novus) (antibody)
